Patent US20060142193A1, “Selective inhibition of rock1 in cardiac therapy” (BAYLOR COLLEGE OF MEDICINE, priority 2004, published 2006)
Blank lines part the entries; values can stand above or below the molecule they belong to.

What was measured:
PTEN = PTEN activity by Malachite green assay in human HEK cells; type: cell-based; settings: transfected HEK cells
From the text: (§1) To further characterize the mechanism involved in this caspase activation, the present inventors transfected ROCKΔ1 in human HEK cells. […] Since AKT is activated by PI3K, PTEN acts as the upstream PI3K inhibitor. In specific embodiments of the invention, the repression of AKT activity caused by ROCKΔ1 may contribute to its pro-apoptotic effect through the increase in PTEN activity. […] Meanwhile, the decreased level of pAKT by ROCKΔ1 was reverted by blocking PTEN expression. Furthermore, the pAKT level was higher than the control level (FIG. 22D), which further supported this specific embodiment.
Western blot and Malachite green assay. Anti-ROCK-1, caspase 3, PARP, His, α-actin antibodies (Santa Cruz), anti-phospho-AKTser473 (Cell Signaling) and anti-RTEN (Upstate) were purchased. Protein samples for Western blot were prepared and separated as described earlier (Chang et al., 2000). Even loadings were confirmed by Ponceau staining and antibody probed for actin. PTEN activity was evaluated by Malachite green assay (Upstate). 500 μg of cell lysate protein was used for immunoprecipitation.

phospho-AKT (pAKT) = experiment: phospho-AKT level in human HEK cells (Western blot); type: cell-based; settings: transfected HEK cells
From the text: as §1
Cell culture, plasmid constructs, and recombinant adenoviruses. Neonatal rat cardiomyocytes were isolated and cultured in DMEM/F12 medium (1:1) with 10% horse serum (DF10); cells were ready for transfection or virus infection 40 hours after plating. For immunostaining, cells were cultured on pre-coated (with 0.2% gelatin) coverslips. Transfections were performed using LipofectAMINE 2000 (Invitrogen) with Opti-MEM I Reduced Serum Medium (Invitrogen). After 6 hr or O/N, cells were cultured in DF10. With human embryonic kidney (HEK) A293T cells, cells were cultured in DMEM with 10% fetal bovine serum. […]
Western blot and Malachite green assay. […] PTEN activity was evaluated by Malachite green assay (Upstate). […]

caspase 3 = experiment: Caspase 3 activation in transfected neonatal rat cardiomyocytes (pCaspase3-sensor); type: cell-based; settings: overexpression vs control plasmid
From the text: To determine whether ROCK1 activation by caspase 3 cleavage is able to activate the caspase cascade, thereby constituting an amplification loop of apoptotic responses, the present inventors transfected rat neonatal cardiomyocytes with a plasmid encoding a C-terminally truncated mutant (1-1080) of ROCK1 (ROCK1Δ1) that corresponds closely to the fragment generated by caspase 3 cleavage (1-1113), and a second plasmid, pCaspase3-sensor encoding a fluorescent (EYFP) fusion protein (FIG. 9A). […] Caspase 3 activity in the transfected myocytes was monitored by counting the number of transfected cells with nuclear localization of fluorescent fusion protein.
Apoptosis assay and immunofluorescence analysis. Apoptosis was evaluated using caspase 3 activity and poly(ADP-ribose) polymerase (PARP) cleavage with Western blot in human and mouse heart tissues. With regard to apoptotic cultured neonatal cardiomyocytes, a caspase 3 sensor (BD Biosciences) was introduced to detect the onset of caspase 3 activity (FIG. 9). The vector encodes EYFP (enhanced yellow fluorescent protein) fused with NES (nuclear export signal) and NLS (nuclear localization signal). A caspase 3 specific cleavage site is located between EYFP and NES. […] The quantification was performed by counting the number of transfected cells with the nuclear localization of fluorescent fusion protein over the total transfected cells. […]

SRF = target: T1, SRF (Homo sapiens, UniProt P11831); experiment: SRF cleavage by active caspase 3 in vitro in presence or absence of ROCK1Δ1; type: biochemical; settings: in the presence of active ROCK1
T1 sequence (P11831 1-508): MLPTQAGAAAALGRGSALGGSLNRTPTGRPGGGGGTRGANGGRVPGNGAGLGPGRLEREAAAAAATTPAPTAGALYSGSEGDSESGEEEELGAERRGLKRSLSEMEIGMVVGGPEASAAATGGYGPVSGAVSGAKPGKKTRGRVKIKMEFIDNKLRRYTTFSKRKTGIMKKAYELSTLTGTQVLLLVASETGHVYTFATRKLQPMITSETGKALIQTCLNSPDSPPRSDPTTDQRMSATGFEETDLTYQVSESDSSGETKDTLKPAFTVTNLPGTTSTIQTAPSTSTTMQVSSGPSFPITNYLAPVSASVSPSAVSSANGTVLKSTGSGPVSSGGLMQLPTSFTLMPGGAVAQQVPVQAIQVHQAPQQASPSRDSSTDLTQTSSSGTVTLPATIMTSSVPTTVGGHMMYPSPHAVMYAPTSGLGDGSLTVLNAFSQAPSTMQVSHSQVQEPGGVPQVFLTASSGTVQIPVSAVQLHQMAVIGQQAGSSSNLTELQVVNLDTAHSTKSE
Method: Equal amounts of SRF were incubated with active caspase 3 in the presence or absence of ROCK1Δ1.

caspase 3 activation (nuclear localization of EYFP fusion protein) (caspase 3): induced significant caspase 3 activation
full-length SRF level after incubation with active caspase 3 (SRF): markedly decreased
B1: ROCK1Δ1: C-terminally truncated mutant (1-1080) of ROCK1, constitutively active, mimics caspase 3 cleaved fragment (protein, UniProt Q13464 1-1080, looked up, fragment)
chain: MSTGDSFETRFEKMDNLLRDPKSEVNSDCLLDGLDALVYDLDFPALRKNKNIDNFLSRYKDTINKIRDLRMKAEDYEVVKVIGRGAFGEVQLVRHKSTRKVYAMKLLSKFEMIKRSDSAFFWEERDIMAFANSPWVVQLFYAFQDDRYLYMVMEYMPGGDLVNLMSNYDVPEKWARFYTAEVVLALDAIHSMGFIHRDVKPDNMLLDKSGHLKLADFGTCMKMNKEGMVRCDTAVGTPDYISPEVLKSQGGDGYYGRECDWWSVGVFLYEMLVGDTPFYADSLVGTYSKIMNHKNSLTFPDDNDISKEAKNLICAFLTDREVRLGRNGVEEIKRHLFFKNDQWAWETLRDTVAPVVPDLSSDIDTSNFDDLEEDKGEEETFPIPKAFVGNQLPFVGFTYYSNRRYLSSANPNDNRTSSNADKSLQESLQKTIYKLEEQLHNEMQLKDEMEQKCRTSNIKLDKIMKELDEEGNQRRNLESTVSQIEKEKMLLQHRINEYQRKAEQENEKRRNVENEVSTLKDQLEDLKKVSQNSQLANEKLSQLQKQLEEANDLLRTESDTAVRLRKSHTEMSKSISQLESLNRELQERNRILENSKSQTDKDYYQLQAILEAERRDRGHDSEMIGDLQARITSLQEEVKHLKHNLEKVEGERKEAQDMLNHSEKEKNNLEIDLNYKLKSLQQRLEQEVNEHKVTKARLTDKHQSIEEAKSVAMCEMEKKLKEEREAREKAENRVVQIEKQCSMLDVDLKQSQQKLEHLTGNKERMEDEVKNLTLQLEQESNKRLLLQNELKTQAFEADNLKGLEKQMKQEINTLLEAKRLLEFELAQLTKQYRGNEGQMRELQDQLEAEQYFSTLYKTQVKELKEEIEEKNRENLKKIQELQNEKETLATQLDLAETKAESEQLARGLLEEQYFELTQESKKAASRNRQEITDKDHTVSRLEEANSMLTKDIEILRRENEELTEKMKKAEEEYKLEKEEEISNLKAAFEKNINTERTLKTQAVNKLAEIMNRKDFKIDRKKANTQDLRKKEKENRKLQLELNQEREKFNQMVVKHQKELNDMQAQLVEECAHRNELQMQL
PTEN activity (PTEN): increased
phospho-AKT (pAKT) level (phospho-AKT (pAKT)): decreased

caspase 3 activation (nuclear localization of EYFP fusion protein) (caspase 3): no significant effect
B2: full length ROCK1: full length human ROCK-1 expressed from pCAG-ROCK-1 (protein, UniProt Q13464 1-1354, looked up)
chain: MSTGDSFETRFEKMDNLLRDPKSEVNSDCLLDGLDALVYDLDFPALRKNKNIDNFLSRYKDTINKIRDLRMKAEDYEVVKVIGRGAFGEVQLVRHKSTRKVYAMKLLSKFEMIKRSDSAFFWEERDIMAFANSPWVVQLFYAFQDDRYLYMVMEYMPGGDLVNLMSNYDVPEKWARFYTAEVVLALDAIHSMGFIHRDVKPDNMLLDKSGHLKLADFGTCMKMNKEGMVRCDTAVGTPDYISPEVLKSQGGDGYYGRECDWWSVGVFLYEMLVGDTPFYADSLVGTYSKIMNHKNSLTFPDDNDISKEAKNLICAFLTDREVRLGRNGVEEIKRHLFFKNDQWAWETLRDTVAPVVPDLSSDIDTSNFDDLEEDKGEEETFPIPKAFVGNQLPFVGFTYYSNRRYLSSANPNDNRTSSNADKSLQESLQKTIYKLEEQLHNEMQLKDEMEQKCRTSNIKLDKIMKELDEEGNQRRNLESTVSQIEKEKMLLQHRINEYQRKAEQENEKRRNVENEVSTLKDQLEDLKKVSQNSQLANEKLSQLQKQLEEANDLLRTESDTAVRLRKSHTEMSKSISQLESLNRELQERNRILENSKSQTDKDYYQLQAILEAERRDRGHDSEMIGDLQARITSLQEEVKHLKHNLEKVEGERKEAQDMLNHSEKEKNNLEIDLNYKLKSLQQRLEQEVNEHKVTKARLTDKHQSIEEAKSVAMCEMEKKLKEEREAREKAENRVVQIEKQCSMLDVDLKQSQQKLEHLTGNKERMEDEVKNLTLQLEQESNKRLLLQNELKTQAFEADNLKGLEKQMKQEINTLLEAKRLLEFELAQLTKQYRGNEGQMRELQDQLEAEQYFSTLYKTQVKELKEEIEEKNRENLKKIQELQNEKETLATQLDLAETKAESEQLARGLLEEQYFELTQESKKAASRNRQEITDKDHTVSRLEEANSMLTKDIEILRRENEELTEKMKKAEEEYKLEKEEEISNLKAAFEKNINTERTLKTQAVNKLAEIMNRKDFKIDRKKANTQDLRKKEKENRKLQLELNQEREKFNQMVVKHQKELNDMQAQLVEECAHRNELQMQLASKESDIEQLRAKLLDLSDSTSVASFPSADETDGNLPESRIEGWLSVPNRGNIKRYGWKKQYVVVSSKKILFYNDEQDKEQSNPSMVLDIDKLFHVRPVTQGDVYRAETEEIPKIFQILYANEGECRKDVEMEPVQQAEKTNFQNHKGHEFIPTLYHFPANCDACAKPLWHVFKPPPALECRRCHVKCHRDHLDKKEDLICPCKVSYDVTSARDMLLLACSQDEQKKWVTHLVKKIPKNPPSGFVRASPRTLSTRSTANQSFRKVVKNTSGKTS
modifications: full-length
PTEN activity (PTEN): not found
